Assay [1] has as its target T1, BTN3A1/BTN3A2 heterodimer (human, UniProt O00481 30-513; P78410 30-334).
T1 construct: BTN3A1, human; synthetic signal peptide fused to the N-terminus; BTN3A2, human; copies: 1 + 1
In words: AUC; sedimentation velocity, 40,000 rpm, 20 °C, 25 mM HEPES pH 7.4, 150 mM NaCl, 0.02% GDN, absorbance at 280 nm; no HMBPP (3A2 complex also with 40 μM HMBPP: less of the high-mass species). Conditions: both partners purified.

Assay [2] addresses T2, BTN3A1 (human, UniProt O00481 30-513).
T2 construct: BTN3A1, human, codon-optimised synthetic cDNA; Construct details are in the Supplementary Information; source: ExpiHEK293F, transfected; purified within the 3A2/3A3 complex (anti-Flag, Strep-Tactin XT, SEC)
Described as above. Conditions: both partners purified.

T2 sequence (O00481 30-513): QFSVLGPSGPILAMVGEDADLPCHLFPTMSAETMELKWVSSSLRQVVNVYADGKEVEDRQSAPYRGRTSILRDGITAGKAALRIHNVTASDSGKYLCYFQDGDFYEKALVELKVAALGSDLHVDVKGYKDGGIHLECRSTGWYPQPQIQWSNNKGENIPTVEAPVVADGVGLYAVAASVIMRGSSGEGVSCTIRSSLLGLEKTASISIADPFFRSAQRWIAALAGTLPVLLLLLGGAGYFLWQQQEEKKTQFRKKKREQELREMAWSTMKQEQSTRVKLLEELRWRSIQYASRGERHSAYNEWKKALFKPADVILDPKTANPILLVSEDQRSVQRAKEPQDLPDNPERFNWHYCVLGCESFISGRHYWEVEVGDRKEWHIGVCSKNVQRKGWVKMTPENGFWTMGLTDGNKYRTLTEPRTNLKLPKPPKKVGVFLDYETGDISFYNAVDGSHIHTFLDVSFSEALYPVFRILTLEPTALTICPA

B1: BTN2A1 (natural protein, human, UniProt Q7KYR7 29-527, looked up)
chain: QFIVVGPTDPILATVGENTTLRCHLSPEKNAEDMEVRWFRSQFSPAVFVYKGGRERTEEQMEEYRGRTTFVSKDISRGSVALVIHNITAQENGTYRCYFQEGRSYDEAILHLVVAGLGSKPLISMRGHEDGGIRLECISRGWYPKPLTVWRDPYGGVAPALKEVSMPDADGLFMVTTAVIIRDKSVRNMSCSINNTLLGQKKESVIFIPESFMPSVSPCAVALPIIVVILMIPIAVCIYWINKLQKEKKILSGEKEFERETREIALKELEKERVQKEEELQVKEKLQEELRWRRTFLHAVDVVLDPDTAHPDLFLSEDRRSVRRCPFRHLGESVPDNPERFDSQPCVLGRESFASGKHYWEVEVENVIEWTVGVCRDSVERKGEVLLIPQNGFWTLEMHKGQYRAVSSPDRILPLKESLCRVGVFLDYEAGDVSFYNMRDRSHIYTCPRSAFSVPVRPFFRLGCEDSPIFICPALTGANGVTVPEEGLTLHRVGTHQSL
notes: BTN2A1, human, codon-optimised synthetic cDNA; construct details are in the Supplementary Information; also called BTN2A1 homodimer; BTN2A1 dimer; source: ExpiHEK293F, transfected; purified within the 3A2/3A3 complex (anti-Flag, Strep-Tactin XT, SEC)
Consider B1, for which, in assay [1], the binding result is “binds”.

B2: BTN3A2 (natural protein)
chain: not shown
notes: BTN3A2, human, codon-optimised synthetic cDNA; Construct details are in the Supplementary Information; source: ExpiHEK293F, transfected; purified within the 3A2 complex (anti-Flag, Strep-Tactin XT, SEC)
Take B2: the binding result in assay [2] is listed as “binds”.

These data come from publication PMC13457854 (Cell Discovery, 2026).
